The target in assay [1] is T1, control peptide A2E-10/HLA-A*02:01 complex on T2 cells (member of the P19 mixture) (human).
T1 construct: Loaded on T2 cells as part of the mixture of 19 control peptides
Kind of assay: flow cytometry, phage on T2 cells. The method in brief:
(§1)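 Flow read-out uses R-PE fluorescence: peptide/β2M-loaded T2 cells stained with scFv phage, then anti-M13 and R-PE anti-mouse IgG, all on ice for 30-60 min per step with double washes.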
(Flow cytometry measures light scatter and fluorescence of single cells or particles in a stream.)

Assay [2] has as its target T2, control peptide A2E-13/HLA-A*02:01 complex on T2 cells (member of the P19 mixture) (human).
T2 construct: Loaded on T2 cells as part of the mixture of 19 control peptides
Kind of assay: flow cytometry, phage on T2 cells. The method, boiled down: as §1

Assay [3] deals with T3, control peptide A2E-14/HLA-A*02:01 complex on T2 cells (member of the P19 mixture) (human).
T3 construct: Loaded on T2 cells as part of the mixture of 19 control peptides
Kind of assay: flow cytometry, phage on T2 cells. The method, boiled down:
as §1

Assay [4] concerns the target T4, control peptide A2E-23/HLA-A*02:01 complex on T2 cells (member of the P19 mixture) (human).
T4 construct: Loaded on T2 cells as part of the mixture of 19 control peptides
In words: flow cytometry, phage on T2 cells. The method in brief: as §1

Assay [5] deals with T5, control peptide A2E-6/HLA-A*02:01 complex on T2 cells (member of the P19 mixture) (human).
T5 construct: Loaded on T2 cells as part of the mixture of 19 control peptides
Kind of assay: flow cytometry, phage on T2 cells. The method in brief: as §1

Assay [6] concerns the target T6, control peptide A2E-5/HLA-A*02:01 complex on T2 cells (member of the P19 mixture) (human).
T6 construct: Loaded on T2 cells as part of the mixture of 19 control peptides
In words: flow cytometry, phage on T2 cells. The method in brief:
as §1

Assay [7] has as its target T7, control peptide A2E-16/HLA-A*02:01 complex on T2 cells (member of the P19 mixture) (human).
T7 construct: Loaded on T2 cells as part of the mixture of 19 control peptides
Kind of assay: flow cytometry, phage on T2 cells. The method, boiled down:
as §1

Assay [8] has as its target T8, control peptide A2E-11/HLA-A*02:01 complex on T2 cells (member of the P19 mixture) (human).
T8 construct: Loaded on T2 cells as part of the mixture of 19 control peptides
Kind of assay: flow cytometry, phage on T2 cells. The method in brief: as §1

Assay [9] has as its target T9, control peptide A2E-8/HLA-A*02:01 complex on T2 cells (member of the P19 mixture) (human).
T9 construct: Loaded on T2 cells as part of the mixture of 19 control peptides
In words: flow cytometry, phage on T2 cells. The method in brief: as §1

Assay [10] deals with T10, control peptide A2E-3/HLA-A*02:01 complex on T2 cells (member of the P19 mixture) (human).
T10 construct: Loaded on T2 cells as part of the mixture of 19 control peptides
Kind of assay: flow cytometry, phage on T2 cells. The method in brief:
as §1

Assay [11] deals with T11, control peptide A2E-15/HLA-A*02:01 complex on T2 cells (member of the P19 mixture) (human).
T11 construct: Loaded on T2 cells as part of the mixture of 19 control peptides
Kind of assay: flow cytometry, phage on T2 cells. The method in brief:
as §1

Assay [12] has as its target T12, control peptide A2E-7/HLA-A*02:01 complex on T2 cells (member of the P19 mixture) (human).
T12 construct: Loaded on T2 cells as part of the mixture of 19 control peptides
In words: flow cytometry, phage on T2 cells. The method in brief: as §1

Assay [13] concerns the target T13, control peptide A2E-1/HLA-A*02:01 complex on T2 cells (member of the P19 mixture) (human).
T13 construct: Loaded on T2 cells as part of the mixture of 19 control peptides
In words: flow cytometry, phage on T2 cells. The method in brief:
as §1

Assay [14] concerns the target T14, control peptide A2E-2/HLA-A*02:01 complex on T2 cells (member of the P19 mixture) (human).
T14 construct: Loaded on T2 cells as part of the mixture of 19 control peptides
Kind of assay: flow cytometry, phage on T2 cells. The method in brief: as §1

Assay [15] concerns the target T15, control peptide A2E-21/HLA-A*02:01 complex on T2 cells (member of the P19 mixture) (human).
T15 construct: Loaded on T2 cells as part of the mixture of 19 control peptides
In words: flow cytometry, phage on T2 cells. The method in brief: as §1

Assay [16] addresses T16, control peptide A2E-9/HLA-A*02:01 complex on T2 cells (member of the P19 mixture) (human).
T16 construct: Loaded on T2 cells as part of the mixture of 19 control peptides
Kind of assay: flow cytometry, phage on T2 cells. The method in brief:
as §1

Assay [17] concerns the target T17, control peptide A2E-17/HLA-A*02:01 complex on T2 cells (member of the P19 mixture) (human).
T17 construct: Loaded on T2 cells as part of the mixture of 19 control peptides
In words: flow cytometry, phage on T2 cells. The method in brief:
as §1

Assay [18] concerns the target T18, control peptide A2E-19/HLA-A*02:01 complex on T2 cells (member of the P19 mixture) (human).
T18 construct: Loaded on T2 cells as part of the mixture of 19 control peptides
In words: flow cytometry, phage on T2 cells. The method, boiled down:
as §1

The target in assay [19] is T19, control peptide A2E-4/HLA-A*02:01 complex on T2 cells (member of the P19 mixture) (human).
T19 construct: Loaded on T2 cells as part of the mixture of 19 control peptides
In words: flow cytometry, phage on T2 cells. The method, boiled down: as §1

For assay [20], the target named is T20, HLA-A*02:01 on T2 cells with no peptide loaded (human).
T20 construct: TAP-deficient T2 cells, no peptide loaded from outside; also called T2 cells without peptide loading
Kind of assay: flow cytometry, phage on T2 cells, anti-M13 + R-PE anti-mouse IgG. The method, boiled down: as §1

Assay [21] has as its target T21, PSA 146-154 peptide/HLA-A*02:01 complex on the cell surface (human).
T21 construct: also called PSA146/HLA-A*02:01; PSA146-loaded T2 cells
Described as above. The method in brief:
as §1

Assay [22] has as its target T22, Bio-P19 member A2E-14 (chain 2: C-terminal BirA substrate peptide (BSP), enzymatically biotinylated; its letters are not printed in the patent and it is left out).
T22 construct: also called biotinylated control peptide A2E-14/HLA-A*02:01 monomer
Kind of assay: phage ELISA, streptavidin plate, anti-M13-HRP. The method, boiled down: (§2)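 Phage clones selected by panning against PSA146/HLA-A*02:01 are tested by ELISA in coated streptavidin plates, with HRP-labelled anti-M13 and substrate development read at 450 nm.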
(In general: In an ELISA, binding on a coated surface is turned into a signal by an enzyme label.)

The target of assay [23] is T23, Bio-P19 member A2E-1 (chain 2: C-terminal BirA substrate peptide (BSP), enzymatically biotinylated; its letters are not printed in the patent and it is left out).
T23 construct: also called biotinylated control peptide A2E-1/HLA-A*02:01 monomer
Kind of assay: phage ELISA, streptavidin plate, anti-M13-HRP. The method in brief:
as §2

Assay [24] has as its target T24, Bio-P19 member A2E-10 (chain 2: C-terminal BirA substrate peptide (BSP), enzymatically biotinylated; its letters are not printed in the patent and it is left out).
T24 construct: also called biotinylated control peptide A2E-10/HLA-A*02:01 monomer
In words: phage ELISA, streptavidin plate, anti-M13-HRP. The method, boiled down: as §2

B1: PSA146/HLA-A*02:01-specific scFv phage clone #18 (scFv, V domains shown)
VH: QVQLVQSGAEVKKPGESLKISCKGSGYSFTSYWIGWVRQMPGKGLEWMGIIYPGDSDTRYSPSFQGQVTISADKSISTAYLQWSSLKASDTAMYYCARWGSRGFLDAFDIWGQGTMVTVSS
VL: QSVVTQPPSVSAAPGQRVTISCSGSSSNIGNNYVSWYQQLPGAAPRLLIYDNDKRPSGIPDRFSGSKSGTSATLGITGLQTGDEADYYCGTWDSSLSSGVFGGGTKLTVLG
On to B1, for which the binding result in [1], in [2], in assay [3], in [4], in assay [5] and in assay [6] was “no binding” throughout. In addition, the binding result in [7], in [8], in [9], in [10], in assay [11] and in [12] was “no binding” each time. Besides, the binding result in assay [13], in assay [14], in assay [15], in [16], in assay [17] and in [18] was “no binding” each time. Further, the binding result in assay [19] was “no binding”; in assay [20], “no binding”; in [21], “binds”; in assay [22] it was “no binding”; in assay [23], “no binding”; in [24], “no binding”.

The values above are taken from patent publication US20200087400A1 (EUREKA THERAPEUTICS, published 2020).
